This passage reports percent of parent results from paper PMC2773741.

Experiment [1] addresses cone-rod homeobox (CRX), V5-tagged (UniProt O43186). Put plainly: co-immunoprecipitation, band densitometry normalized to input. The conditions noted are these: COS-1 cells cotransfected; detection mouse anti-Xpress; parent: est. 100; read off a plot.
Experiment [2] concerns the target neural retina leucine zipper (NRL), V5-tagged (UniProt P54845). The experiment is described as above. The conditions noted are these: COS-1 cells cotransfected; IP goat anti-V5; detection mouse anti-Xpress; parent: est. 100; read off a plot.

Chain of neural retina leucine zipper (NRL), V5-tagged (P54845 whole entry): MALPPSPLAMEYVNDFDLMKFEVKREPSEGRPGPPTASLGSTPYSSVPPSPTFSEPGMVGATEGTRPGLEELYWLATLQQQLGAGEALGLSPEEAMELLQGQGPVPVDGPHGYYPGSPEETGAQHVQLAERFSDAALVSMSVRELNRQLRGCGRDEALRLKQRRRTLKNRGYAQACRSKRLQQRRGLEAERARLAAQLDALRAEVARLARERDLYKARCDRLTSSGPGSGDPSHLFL
Chain of cone-rod homeobox (CRX), V5-tagged (O43186 whole entry): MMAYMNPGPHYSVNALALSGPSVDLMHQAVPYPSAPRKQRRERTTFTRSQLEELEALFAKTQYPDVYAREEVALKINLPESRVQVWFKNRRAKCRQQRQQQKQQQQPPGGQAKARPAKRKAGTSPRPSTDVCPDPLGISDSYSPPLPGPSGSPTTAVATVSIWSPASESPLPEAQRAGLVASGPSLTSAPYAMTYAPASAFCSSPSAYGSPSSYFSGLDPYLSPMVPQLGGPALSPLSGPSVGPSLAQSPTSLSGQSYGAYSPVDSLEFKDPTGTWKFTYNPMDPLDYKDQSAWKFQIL
Chain of photoreceptor-specific nuclear receptor NR2E3 (nuclear receptor subfamily 2 group E member 3), wild type, Q9Y5X4-1 p.N65_C67del (Q9Y5X4 other isoform, or with tags, fused parts or gaps p.N65_C67del): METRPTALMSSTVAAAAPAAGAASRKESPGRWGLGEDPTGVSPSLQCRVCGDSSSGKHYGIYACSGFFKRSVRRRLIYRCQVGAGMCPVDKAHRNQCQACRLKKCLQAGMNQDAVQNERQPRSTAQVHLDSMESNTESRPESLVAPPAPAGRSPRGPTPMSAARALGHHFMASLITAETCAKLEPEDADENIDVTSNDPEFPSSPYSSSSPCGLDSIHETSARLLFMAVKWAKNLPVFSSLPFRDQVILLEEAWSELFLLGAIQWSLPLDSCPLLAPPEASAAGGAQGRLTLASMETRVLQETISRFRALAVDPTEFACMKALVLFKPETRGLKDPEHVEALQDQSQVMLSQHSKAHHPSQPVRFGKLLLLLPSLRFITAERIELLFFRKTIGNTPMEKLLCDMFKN
Chain of photoreceptor-specific nuclear receptor NR2E3 (nuclear receptor subfamily 2 group E member 3), wild type, Q9Y5X4-1 p.A256E (Q9Y5X4 whole entry A256E): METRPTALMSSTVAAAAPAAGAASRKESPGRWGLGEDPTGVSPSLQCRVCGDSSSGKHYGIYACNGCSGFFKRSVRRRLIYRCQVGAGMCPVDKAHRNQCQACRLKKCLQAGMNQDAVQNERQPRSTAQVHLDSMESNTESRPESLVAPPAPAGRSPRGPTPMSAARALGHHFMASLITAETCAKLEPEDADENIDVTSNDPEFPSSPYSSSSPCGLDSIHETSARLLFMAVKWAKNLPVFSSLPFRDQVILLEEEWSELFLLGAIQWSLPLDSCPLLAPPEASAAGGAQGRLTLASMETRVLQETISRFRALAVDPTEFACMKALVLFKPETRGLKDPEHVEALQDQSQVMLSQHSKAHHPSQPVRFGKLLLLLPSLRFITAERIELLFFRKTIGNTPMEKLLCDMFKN
Chain of photoreceptor-specific nuclear receptor NR2E3 (nuclear receptor subfamily 2 group E member 3), wild type, Q9Y5X4-1 p.R385P (Q9Y5X4 whole entry R385P): as the sequence (Q9Y5X4 whole entry A256E) above, with E256A, R385P counted along it
Chain of photoreceptor-specific nuclear receptor NR2E3 (nuclear receptor subfamily 2 group E member 3), wild type, Q9Y5X4-1 p.G88V (Q9Y5X4 whole entry G88V): as the sequence (Q9Y5X4 whole entry A256E) above, with G88V, E256A counted along it
Chain of photoreceptor-specific nuclear receptor NR2E3 (nuclear receptor subfamily 2 group E member 3), wild type, Q9Y5X4-1 p.W234S (Q9Y5X4 whole entry W234S): as the sequence (Q9Y5X4 whole entry A256E) above, with W234S, E256A counted along it
Chain of photoreceptor-specific nuclear receptor NR2E3 (nuclear receptor subfamily 2 group E member 3), wild type, Q9Y5X4-1 p.L263P (Q9Y5X4 whole entry L263P): as the sequence (Q9Y5X4 whole entry A256E) above, with E256A, L263P counted along it
Chain of photoreceptor-specific nuclear receptor NR2E3 (nuclear receptor subfamily 2 group E member 3), wild type, Q9Y5X4-1 p.V302I (Q9Y5X4 whole entry V302I): as the sequence (Q9Y5X4 whole entry A256E) above, with E256A, V302I counted along it
Chain of photoreceptor-specific nuclear receptor NR2E3 (nuclear receptor subfamily 2 group E member 3), wild type, Q9Y5X4-1 p.R334G (Q9Y5X4 whole entry R334G): as the sequence (Q9Y5X4 whole entry A256E) above, with E256A, R334G counted along it
Chain of photoreceptor-specific nuclear receptor NR2E3 (nuclear receptor subfamily 2 group E member 3), wild type, Q9Y5X4-1 p.R309G (Q9Y5X4 whole entry R309G): as the sequence (Q9Y5X4 whole entry A256E) above, with E256A, R309G counted along it
Chain of photoreceptor-specific nuclear receptor NR2E3 (nuclear receptor subfamily 2 group E member 3), wild type, Q9Y5X4-1 p.V232I (Q9Y5X4 whole entry V232I): as the sequence (Q9Y5X4 whole entry A256E) above, with V232I, E256A counted along it

On to “photoreceptor-specific nuclear receptor NR2E3 (nuclear receptor subfamily 2 group E member 3), wild type, Q9Y5X4-1 p.A256E”, for which the percent of parent in experiment [1] was determined as 55%; in experiment [2] it was 62%.

On to “photoreceptor-specific nuclear receptor NR2E3 (nuclear receptor subfamily 2 group E member 3), wild type, Q9Y5X4-1 p.E121K”, for which the percent of parent in experiment [1] stood at 87%; in experiment [2], 120%.

Consider “photoreceptor-specific nuclear receptor NR2E3 (nuclear receptor subfamily 2 group E member 3), wild type, Q9Y5X4-1 p.G56R”, for which the percent of parent stood at 48% in experiment [1] and 110% in experiment [2].

In the case of “photoreceptor-specific nuclear receptor NR2E3 (nuclear receptor subfamily 2 group E member 3), wild type, Q9Y5X4-1 p.G88V”, the percent of parent in experiment [1] turned out to be 99%; in experiment [2], 110%.

As to “photoreceptor-specific nuclear receptor NR2E3 (nuclear receptor subfamily 2 group E member 3), wild type, Q9Y5X4-1 p.L263P”, the results for the percent of parent in experiment [1] and in experiment [2] were 24% and 16%, respectively.

On to “photoreceptor-specific nuclear receptor NR2E3 (nuclear receptor subfamily 2 group E member 3), wild type, Q9Y5X4-1 p.L336P”, for which the percent of parent in experiment [1] is 32%; in experiment [2], 10%.

With “photoreceptor-specific nuclear receptor NR2E3 (nuclear receptor subfamily 2 group E member 3), wild type, Q9Y5X4-1 p.L353V”, the percent of parent in experiment [1] came to 30%; in experiment [2] it was 10%.

Regarding “photoreceptor-specific nuclear receptor NR2E3 (nuclear receptor subfamily 2 group E member 3), wild type, Q9Y5X4-1 p.M407K”, the percent of parent was determined as 76% in experiment [1] and 61% in experiment [2].

Regarding “photoreceptor-specific nuclear receptor NR2E3 (nuclear receptor subfamily 2 group E member 3), wild type, Q9Y5X4-1 p.N65_C67del”, the percent of parent is 84% in experiment [1] and 100% in experiment [2].

With “photoreceptor-specific nuclear receptor NR2E3 (nuclear receptor subfamily 2 group E member 3), wild type, Q9Y5X4-1 p.R76Q”, the figures for the percent of parent in experiment [1] and in experiment [2] were 95% and 110%, respectively.

In the case of “photoreceptor-specific nuclear receptor NR2E3 (nuclear receptor subfamily 2 group E member 3), wild type, Q9Y5X4-1 p.R76W”, the percent of parent was determined as 88% in experiment [1] and 98% in experiment [2].

Turning to “photoreceptor-specific nuclear receptor NR2E3 (nuclear receptor subfamily 2 group E member 3), wild type, Q9Y5X4-1 p.R97H”, the percent of parent in experiment [1] was found to be 43%; in experiment [2] it was 110%.

For the substance “photoreceptor-specific nuclear receptor NR2E3 (nuclear receptor subfamily 2 group E member 3), wild type, Q9Y5X4-1 p.R104Q”, the percent of parent in experiment [1] stood at 42%; in experiment [2], 100%.

Regarding “photoreceptor-specific nuclear receptor NR2E3 (nuclear receptor subfamily 2 group E member 3), wild type, Q9Y5X4-1 p.R309G”, the figures for the percent of parent in experiment [1] and in experiment [2] were 55% and 37%, respectively.

“photoreceptor-specific nuclear receptor NR2E3 (nuclear receptor subfamily 2 group E member 3), wild type, Q9Y5X4-1 p.R311Q”: the values for the percent of parent in experiment [1] and in experiment [2] were 44% and 74%, respectively.

“photoreceptor-specific nuclear receptor NR2E3 (nuclear receptor subfamily 2 group E member 3), wild type, Q9Y5X4-1 p.R334G”: the percent of parent came out at 81% in experiment [1] and 69% in experiment [2].

For “photoreceptor-specific nuclear receptor NR2E3 (nuclear receptor subfamily 2 group E member 3), wild type, Q9Y5X4-1 p.R385P”, the percent of parent in experiment [1] worked out at 60%; in experiment [2], 37%.

In the case of “photoreceptor-specific nuclear receptor NR2E3 (nuclear receptor subfamily 2 group E member 3), wild type, Q9Y5X4-1 p.V232I”, the percent of parent in experiment [1] and in experiment [2] was 87% in each case.

For the substance “photoreceptor-specific nuclear receptor NR2E3 (nuclear receptor subfamily 2 group E member 3), wild type, Q9Y5X4-1 p.V302I”, the percent of parent in experiment [1] worked out at 86%; in experiment [2] it was 56%.

In the case of “photoreceptor-specific nuclear receptor NR2E3 (nuclear receptor subfamily 2 group E member 3), wild type, Q9Y5X4-1 p.W234S”, the values for the percent of parent in experiment [1] and in experiment [2] were 95% and 58%, respectively.
